# Assay results as given in patent US20230287120A1 (ALLOGENE THERAPEUTICS, published 2023).
# T1: Flag tagged recombinant DLL3 (Adipogen) (Homo sapiens (Human), UniProt Q9NYJ7 27-492)
# T1 construct: Bought reagent; also called Flag-DLL3
# T1 sequence: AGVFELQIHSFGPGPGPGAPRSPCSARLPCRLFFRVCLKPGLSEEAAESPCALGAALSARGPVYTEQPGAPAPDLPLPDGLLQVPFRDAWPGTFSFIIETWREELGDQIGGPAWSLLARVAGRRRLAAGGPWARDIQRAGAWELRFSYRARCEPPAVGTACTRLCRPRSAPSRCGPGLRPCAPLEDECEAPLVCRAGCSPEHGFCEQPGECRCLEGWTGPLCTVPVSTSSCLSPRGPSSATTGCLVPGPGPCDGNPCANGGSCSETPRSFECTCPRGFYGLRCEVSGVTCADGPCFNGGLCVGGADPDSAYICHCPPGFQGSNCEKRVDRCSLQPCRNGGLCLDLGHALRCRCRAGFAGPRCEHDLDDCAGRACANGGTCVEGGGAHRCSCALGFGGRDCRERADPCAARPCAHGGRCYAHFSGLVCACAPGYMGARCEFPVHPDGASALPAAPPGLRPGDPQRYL
# B1: 6D8 (other)
# CAR: QITLKESGPTLVKPTQTLTLTCTFSGFSLSTRGVGVGWIRQPPGKALEWLALIYWNDDKRYSPSLQTRLTITKDTPKNQVVLTMTNMDPVDTATYYCARSNWGNWYFALWGRGTLVTVSSGGGGSGGGGSGGGGSGGGGSEIVLTQSPATLSLSPGERATLSCRASQSVSSYLAWYQQKPGQAPRLLIYDAFYRATGIPARFSGSGSGTDFTLTISSLEPEDFAVYYCQHRSNWPITFGQGTRLEIKTTTPAPRPPTPAPTIASQPLSLRPEACRPAAGGAVHTRGLDFACDIYIWAPLAGTCGVLLLSLVITKRGRKKLLYIFKQPFMRPVQTTQEEDGCSCRFPEEEEGGCELRVKFSRSADAPAYQQGQNQLYNELNLGRREEYDVLDKRRGRDPEMGGKPRRKNPQEGLYNELQKDKMAEAYSEIGMKGERRRGKGHDGLYQGLSTATKDTYDALHMQALPPR
# notes: also called anti-DLL3 CAR with 6D8 scFv, on primary T cells
# B2: 2D3 (other)
# CAR: QVQLQESGPGLVKPSETLSLTCTVSDNSISNYYWSWIRQPPGKGLEWIAYIYYSGTTNYNPSLKSRVTISLDTSKNQFSLKLSSVTAADTAVYYCARLFNWGFAFDIWGQGTMVTVSSGGGGSGGGGSGGGGSGGGGSEIVMTQSPATLSVSPGERATLSCRASQSVSSNLAWYQQKPGQAPRLLIYGASTRATGIPARFSGSGSGTEFTLTISSLQSEDFAVYYCQQYNNWPLTFGGGTKVEIKTTTPAPRPPTPAPTIASQPLSLRPEACRPAAGGAVHTRGLDFACDIYIWAPLAGTCGVLLLSLVITKRGRKKLLYIFKQPFMRPVQTTQEEDGCSCRFPEEEEGGCELRVKFSRSADAPAYQQGQNQLYNELNLGRREEYDVLDKRRGRDPEMGGKPRRKNPQEGLYNELQKDKMAEAYSEIGMKGERRRGKGHDGLYQGLSTATKDTYDALHMQALPPR
# notes: also called anti-DLL3 CAR with 2D3 scFv, on primary T cells
# B3: 5A2 (other)
# CAR: QVQLQESGPGLMKPSETLSLTCTVSGGSISSSYWSCIRQPPGKGLEWIGYIYYSGTTNYNPSLKSRVTLSLDTSKNQFSLRLTSVTAADTAVYYCARVAPTGFWFDYWGQGTLVTVSSGGGGSGGGGSGGGGSGGGGSEIVLTQSPGTLSLSPGERATLSCRASQRVSSRYLAWYQQKPGQAPRLLIYGASSRATGIPDRFSGSGSGTDFTLTISRLEPEEFAVYYCQQYGTSPLTFGGGTKVEIKTTTPAPRPPTPAPTIASQPLSLRPEACRPAAGGAVHTRGLDFACDIYIWAPLAGTCGVLLLSLVITKRGRKKLLYIFKQPFMRPVQTTQEEDGCSCRFPEEEEGGCELRVKFSRSADAPAYQQGQNQLYNELNLGRREEYDVLDKRRGRDPEMGGKPRRKNPQEGLYNELQKDKMAEAYSEIGMKGERRRGKGHDGLYQGLSTATKDTYDALHMQALPPR
# notes: also called anti-DLL3 CAR with 5A2 scFv, on primary T cells
# B4: 2A6.C5 (other)
# CAR: QVQLQESGPGLVKPSETLSLTCTVSNVSISSYYWSWIRQPPGKGLEWIGYIYYSGTTNYNPSLKSRVTMSVDTSKNQFSLKLSSVTAADTAVYFCARLSNWGFAFDIWGQGTMVTFSSGGGGSGGGGSGGGGSGGGGSEIVLTQSPGTLSLSPGERATLSCRASQTISSSYLAWYQQKPGQAPRLLIYGASSRATGIPDRFSGSGSGTEFTLTISRLEPEDFAVYYCQQYGWSPITFGQGTRLEIKTTTPAPRPPTPAPTIASQPLSLRPEACRPAAGGAVHTRGLDFACDIYIWAPLAGTCGVLLLSLVITKRGRKKLLYIFKQPFMRPVQTTQEEDGCSCRFPEEEEGGCELRVKFSRSADAPAYQQGQNQLYNELNLGRREEYDVLDKRRGRDPEMGGKPRRKNPQEGLYNELQKDKMAEAYSEIGMKGERRRGKGHDGLYQGLSTATKDTYDALHMQALPPR
# notes: also called anti-DLL3 CAR with 2A6.C5 scFv, on primary T cells
# Target: T1, Flag tagged recombinant DLL3 (Adipogen)
# Experiment: flow cytometry, percent of T cells that recognise recombinant DLL3, Donor 116
# Description: (§1) To determine the percentage of T cells that were successfully transduced with DLL3 CAR, T cells were first incubated with 1 ug/ml Flag tagged recombinant DLL3 (Adipogen) in PBS+1% BSA for 20 minutes at 4 C.
row,Transduction efficiency [%],Binder
1,32.4,B1
2,46.1,B2
3,49.1,B3
4,37.2,B4

# Target: T1, Flag tagged recombinant DLL3 (Adipogen)
# Experiment: flow cytometry, percent of T cells that recognise recombinant DLL3, Donor 117
# Description: as §1
row,Transduction efficiency [%],Binder
1,34.8,B1
2,47.4,B2
3,47.4,B3
4,37.7,B4

# Target: T1, Flag tagged recombinant DLL3 (Adipogen)
# Experiment: flow cytometry, primary T cells with the CAR, 1 ug/ml Flag tagged recombinant DLL3, PE anti-Flag
# Description: as §1
row,"Rec-DLL3 gate, percent of live CD3+ cells [%]",Binder
1,32.4,B1
2,46.1,B2
3,49.1,B3
4,37.2,B4
